According to FireProtDB (doi:10.1021/bi960863y):

Details: Escherichia coli (strain K12), pH 7, Urea, CD, Potassium phosphate 10 mM, reversible: yes (>95%)

Phosphocarrier protein HPr wild type, P0AA04
denaturant m value (0 °C): 1.29 kcal/mol/M | denaturant midpoint (higher = more stable) (0 °C): 4 M | unfolding free energy (0 °C): 4.63 kcal/mol | denaturant m value (5 °C): 1.18 kcal/mol/M | denaturant midpoint (higher = more stable) (5 °C): 4.38 M | unfolding free energy (5 °C): 5.08 kcal/mol | denaturant m value (10 °C): 1.36 kcal/mol/M | denaturant midpoint (higher = more stable) (10 °C): 4.58 M | unfolding free energy (10 °C): 5.31 kcal/mol | denaturant m value (25 °C): 1.19 kcal/mol/M | denaturant midpoint (higher = more stable) (25 °C): 4.58 M | unfolding free energy (25 °C): 5.31 kcal/mol | denaturant m value (30 °C): 1.14 kcal/mol/M | denaturant midpoint (higher = more stable) (30 °C): 4.32 M | unfolding free energy (30 °C): 5 kcal/mol | denaturant m value (35 °C): 1.01 kcal/mol/M | denaturant midpoint (higher = more stable) (35 °C): 4.04 M | unfolding free energy (35 °C): 4.68 kcal/mol | denaturant m value (40 °C): 1.06 kcal/mol/M | denaturant midpoint (higher = more stable) (40 °C): 3.58 M | unfolding free energy (40 °C): 4.14 kcal/mol | denaturant m value (45 °C): 1.01 kcal/mol/M | denaturant midpoint (higher = more stable) (45 °C): 2.9 M | unfolding free energy (45 °C): 3.37 kcal/mol | denaturant m value (50 °C): 1.11 kcal/mol/M | denaturant midpoint (higher = more stable) (50 °C): 2.09 M | unfolding free energy (50 °C): 2.42 kcal/mol
